Reference: publication PMC6662825, “The MTR4 helicase recruits nuclear adaptors of the human RNA exosome using distinct arch-interacting motifs” (Nature Communications, 2019)

Columns and labels:
Assay in all cases: pull-down; GST-tagged MTR4 constructs as bait, Trx-NVL constructs as prey, glutathione sepharose; 10 μM GST-MTR4∆N with 20 μM Trx-NVL constructs; 50 mM Hepes pH 7.5, 150 mM NaCl, 5% glycerol, 0.05% NP40, 1 mM DTT, 30 min at 4 °C; SDS-PAGE, Coomassie
Settings in all cases: both partners purified
GST-MTR4-KOW = target: T1, GST-MTR4-KOW (human, UniProt P42285 645-787)
T1 construct: human MTR4 KOW domain, residues 645–787; also called GST-tagged MTR4 KOW; source: E. coli BL21 star (DE3), purified (Ni-NTA, heparin, SEC); not shown: 6xHis-GST, N-terminal, kept
T1 sequence (looked up): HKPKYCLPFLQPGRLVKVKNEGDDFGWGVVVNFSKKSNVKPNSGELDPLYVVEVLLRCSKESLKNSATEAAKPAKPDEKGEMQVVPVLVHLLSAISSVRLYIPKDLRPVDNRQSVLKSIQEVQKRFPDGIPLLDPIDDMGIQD

GST-MTR4-∆N = target: T2, GST-MTR4-∆N (human, UniProt P42285 75-1042)
T2 construct: Tag is cleavable with 3C protease; kept for the GST pull-downs; also called GST-tagged MTR4∆N; source: E. coli BL21 star (DE3), purified (Ni-NTA, heparin, SEC); not shown: 6xHis-GST, N-terminal, kept
T2 sequence (looked up): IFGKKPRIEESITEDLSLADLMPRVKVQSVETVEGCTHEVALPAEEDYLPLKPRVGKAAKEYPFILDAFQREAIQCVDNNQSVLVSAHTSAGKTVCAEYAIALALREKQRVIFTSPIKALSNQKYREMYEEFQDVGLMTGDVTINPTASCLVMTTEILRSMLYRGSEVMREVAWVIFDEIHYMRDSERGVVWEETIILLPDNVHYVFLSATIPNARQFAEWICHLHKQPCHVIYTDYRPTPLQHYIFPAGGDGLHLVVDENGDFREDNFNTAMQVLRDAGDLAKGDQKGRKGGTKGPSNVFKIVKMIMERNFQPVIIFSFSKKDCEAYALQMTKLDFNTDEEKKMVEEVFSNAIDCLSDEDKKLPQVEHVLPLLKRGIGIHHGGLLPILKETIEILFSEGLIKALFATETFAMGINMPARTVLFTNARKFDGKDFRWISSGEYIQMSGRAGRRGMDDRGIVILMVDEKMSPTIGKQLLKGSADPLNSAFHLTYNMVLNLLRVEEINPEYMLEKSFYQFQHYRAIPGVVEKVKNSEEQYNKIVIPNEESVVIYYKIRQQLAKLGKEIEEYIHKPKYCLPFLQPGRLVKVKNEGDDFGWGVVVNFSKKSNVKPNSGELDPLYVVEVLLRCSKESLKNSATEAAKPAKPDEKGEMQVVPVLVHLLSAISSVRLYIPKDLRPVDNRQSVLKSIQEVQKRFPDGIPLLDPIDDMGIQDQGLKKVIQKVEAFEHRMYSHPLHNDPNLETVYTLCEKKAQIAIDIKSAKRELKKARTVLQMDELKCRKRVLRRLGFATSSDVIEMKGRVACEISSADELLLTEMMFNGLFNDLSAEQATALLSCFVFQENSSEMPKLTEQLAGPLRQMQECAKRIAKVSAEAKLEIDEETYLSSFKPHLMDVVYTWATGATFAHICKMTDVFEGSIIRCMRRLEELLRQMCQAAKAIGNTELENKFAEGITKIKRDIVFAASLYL

GST-MTR4∆N F677E = target: T3, GST-MTR4∆N F677E (human, UniProt P42285 75-1042, F677E)
T3 construct: source: E. coli BL21 star (DE3), purified (Ni-NTA, heparin, SEC); not shown: 6xHis-GST, N-terminal, kept
T3 sequence (looked up): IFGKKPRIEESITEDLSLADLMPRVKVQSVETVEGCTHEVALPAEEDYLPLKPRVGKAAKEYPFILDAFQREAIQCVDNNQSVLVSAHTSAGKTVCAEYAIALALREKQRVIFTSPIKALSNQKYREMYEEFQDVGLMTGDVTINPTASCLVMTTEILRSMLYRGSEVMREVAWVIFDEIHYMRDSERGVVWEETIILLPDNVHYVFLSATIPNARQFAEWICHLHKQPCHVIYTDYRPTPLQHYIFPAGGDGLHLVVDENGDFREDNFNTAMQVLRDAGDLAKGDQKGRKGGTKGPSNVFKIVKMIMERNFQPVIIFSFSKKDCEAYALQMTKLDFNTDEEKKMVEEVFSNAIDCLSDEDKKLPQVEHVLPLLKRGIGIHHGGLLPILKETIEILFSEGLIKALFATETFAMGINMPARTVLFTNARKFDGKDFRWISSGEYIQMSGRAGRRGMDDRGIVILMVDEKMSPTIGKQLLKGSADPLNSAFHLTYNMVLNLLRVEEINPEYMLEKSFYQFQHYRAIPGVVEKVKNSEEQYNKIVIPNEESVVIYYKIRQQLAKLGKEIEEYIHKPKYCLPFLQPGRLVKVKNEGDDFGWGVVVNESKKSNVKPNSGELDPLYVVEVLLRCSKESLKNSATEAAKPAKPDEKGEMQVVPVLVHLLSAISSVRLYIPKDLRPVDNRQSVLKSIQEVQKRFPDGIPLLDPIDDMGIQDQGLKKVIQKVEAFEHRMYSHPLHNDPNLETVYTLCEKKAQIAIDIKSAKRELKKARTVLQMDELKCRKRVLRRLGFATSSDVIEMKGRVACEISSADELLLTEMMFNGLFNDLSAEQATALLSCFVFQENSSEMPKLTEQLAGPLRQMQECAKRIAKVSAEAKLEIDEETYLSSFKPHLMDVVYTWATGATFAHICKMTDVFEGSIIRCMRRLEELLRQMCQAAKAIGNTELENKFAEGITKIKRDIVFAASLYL

Measured: binding result

B1: Trx-NVL^167–216 (domain or fragment, human, UniProt O15381 167-216, looked up)
chain: KDSEGGWFIDKTPSVKKDSFFLDLSCEKSNPKKPITEIQDSKDSSLLESD
notes: source: E. coli BL21 star (DE3), purified (Ni-NTA, SEC); not shown: 6xHis-Trx, N-terminal, kept
binds: all assays above
